The record followed here is the supplement of paper PMC10567573.

B1: RAD51 (parent)
chain: RFLRMLLRLADEFGVAVVITNQVV
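Note: lentivirally expressed fusions sorted by FACS into six bins by GFP to DsRed ratio, PSI derived from sequencing read proportions per bin multiplied by bin number.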

In the data set the parent is B1. Nature of the data set: protein stability index of a GFP-peptide fusion (GPS, HEK-293T) (PSI 1-6); higher = more stable. Conditions: c terminus: a fixed tail appended.
For RFLAMLLRLADEFGVAVVITNQVV [R4A], the protein stability index turned out to be 2.24.

With RFLSMLLRLADEFGVAVVITNQVV [R4S], the protein stability index was 3.21. Take RFLRMLLMLADEFGVAVVITNQVV [R8M]: the protein stability index is 2.17. Turning to RFLRMLLNLADEFGVAVVITNQVV [R8N], the protein stability index is 1.78. The result for RFLRMLLFLADEFGVAVVITNQVV [R8F] reads 2.47; that for RFLRMLLALADEFGVAVVITNQVV [R8A], 1.42; that for RFLRMLLHLADEFGVAVVITNQVV [R8H], 3.25. RFLRMLLKLADEFGVAVVITNQVV [R8K]: the protein stability index amounted to 2.33. For RFLRMLLDLADEFGVAVVITNQVV [R8D], the protein stability index stood at 2.57.

For the variant RFLRMLLCLADEFGVAVVITNQVV [R8C], the protein stability index came to 2.36. Take RFLRMLLGLADEFGVAVVITNQVV [R8G]: the protein stability index stood at 1.46.

Take RFLRMLLVLADEFGVAVVITNQVV [R8V]: the protein stability index was 2.87. Next, RFLRMLLILADEFGVAVVITNQVV [R8I]: 3.12; RFLRMLLLLADEFGVAVVITNQVV [R8L]: 3.02; RFLRMLLQLADEFGVAVVITNQVV [R8Q]: 2.09. For the variant RFLRMLLWLADEFGVAVVITNQVV [R8W], the protein stability index was found to be 1.83.

With RFLRMLLSLADEFGVAVVITNQVV [R8S], the protein stability index turned out to be 2.96.

RFLRMALRLADEFGVAVVITNQVV [L6A]: the protein stability index turned out to be 1.91. On to RFLRMQLRLADEFGVAVVITNQVV [L6Q], for which the protein stability index amounted to 4.57. On to RFLRMNLRLADEFGVAVVITNQVV [L6N], for which the protein stability index stood at 2.75. Turning to RFLRMPLRLADEFGVAVVITNQVV [L6P], the protein stability index was 3.81. The result for RFLRMYLRLADEFGVAVVITNQVV [L6Y] reads 3.5. As for RFLRMHLRLADEFGVAVVITNQVV [L6H], the protein stability index was 1.55. Next, RFLRMKLRLADEFGVAVVITNQVV [L6K]: 1.96; RFLRMTLRLADEFGVAVVITNQVV [L6T]: 3.04. Take RFLRMGLRLADEFGVAVVITNQVV [L6G]: the protein stability index was 2.56.

Consider RFLRMMLRLADEFGVAVVITNQVV [L6M], for which the protein stability index was 2.02. On to RFLRMCLRLADEFGVAVVITNQVV [L6C], for which the protein stability index worked out at 2.78. On to RFLRMFLRLADEFGVAVVITNQVV [L6F], for which the protein stability index was 3.14. Consider RFLRMSLRLADEFGVAVVITNQVV [L6S], for which the protein stability index worked out at 3.28. For the variant RFLRMVLRLADEFGVAVVITNQVV [L6V], the protein stability index worked out at 2.54. In the case of RFLRMWLRLADEFGVAVVITNQVV [L6W], the protein stability index amounted to 2.54.

Regarding RFLRMRLRLADEFGVAVVITNQVV [L6R], the protein stability index was 2.89.

Regarding RFLRMLLRLAKEFGVAVVITNQVV [D11K], the protein stability index worked out at 3.43.

RFLRMLLRLANEFGVAVVITNQVV [D11N]: the protein stability index was 1.66. Next, RFLRMLLRLAAEFGVAVVITNQVV [D11A]: 3.02. RFLRMLLRLAEEFGVAVVITNQVV [D11E]: the protein stability index amounted to 1.97. Regarding RFLRMLLRLALEFGVAVVITNQVV [D11L], the protein stability index is 2.46. Regarding RFLRMLLRLAREFGVAVVITNQVV [D11R], the protein stability index worked out at 2.85. As to RFLRMLLRLACEFGVAVVITNQVV [D11C], the protein stability index was 2.06. With RFLRMLLRLAPEFGVAVVITNQVV [D11P], the protein stability index is 1.85. RFLRMLLRLAIEFGVAVVITNQVV [D11I]: the protein stability index was 2.43. For RFLRMLLRLASEFGVAVVITNQVV [D11S], the protein stability index is 2.32. Regarding RFLRMLLRLTDEFGVAVVITNQVV [A10T], the protein stability index worked out at 3.2. The result for RFLRMLLRLPDEFGVAVVITNQVV [A10P] reads 2.33. Consider RFLRMLLRLRDEFGVAVVITNQVV [A10R], for which the protein stability index stood at 1.65. In the case of RFLRMLLRLKDEFGVAVVITNQVV [A10K], the protein stability index stood at 2.9. Consider RFLRMLLRLCDEFGVAVVITNQVV [A10C], for which the protein stability index is 1.79. Turning to RFLRMLLRLEDEFGVAVVITNQVV [A10E], the protein stability index is 2.5. Consider RFLRMLLRLMDEFGVAVVITNQVV [A10M], for which the protein stability index is 3.27.

On to RFLRMLLRLNDEFGVAVVITNQVV [A10N], for which the protein stability index came to 2.58. The result for RFLRMLLRLYDEFGVAVVITNQVV [A10Y] reads 3.62. On to RFLRMLLRLSDEFGVAVVITNQVV [A10S], for which the protein stability index stood at 1.65.

Turning to RFLRMLLRLVDEFGVAVVITNQVV [A10V], the protein stability index came out at 1.95. Regarding RFLRMLLRLQDEFGVAVVITNQVV [A10Q], the protein stability index turned out to be 1.82. The result for RFLRMLLRLDDEFGVAVVITNQVV [A10D] reads 1.97. Next, RFLRMLLRLIDEFGVAVVITNQVV [A10I]: 3.61; RFLRMLLRLFDEFGVAVVITNQVV [A10F]: 2.21; RFLRMLLRLLDEFGVAVVITNQVV [A10L]: 3.03. Take RFLRMLLRLHDEFGVAVVITNQVV [A10H]: the protein stability index is 1.64. As for RFLRMLLREADEFGVAVVITNQVV [L9E], the protein stability index amounted to 1.65. As to RFLRMLLRYADEFGVAVVITNQVV [L9Y], the protein stability index was determined as 2.89. Consider RFLRMLLRTADEFGVAVVITNQVV [L9T], for which the protein stability index is 2.51. Consider RFLRMLLRSADEFGVAVVITNQVV [L9S], for which the protein stability index was 1.76. Take RFLRMLLRIADEFGVAVVITNQVV [L9I]: the protein stability index came to 2.52. RFLRMLLRDADEFGVAVVITNQVV [L9D]: the protein stability index was 2.1. Consider RFLRMLLRFADEFGVAVVITNQVV [L9F], for which the protein stability index came out at 1.76.

In the case of RFLRMLLRRADEFGVAVVITNQVV [L9R], the protein stability index amounted to 1.7. Turning to RFLRMLLRNADEFGVAVVITNQVV [L9N], the protein stability index was 2.37. Consider RFLRMLLRQADEFGVAVVITNQVV [L9Q], for which the protein stability index stood at 2.88. Consider RFLRMLLRVADEFGVAVVITNQVV [L9V], for which the protein stability index was 2.38. Regarding RFLRMLLRKADEFGVAVVITNQVV [L9K], the protein stability index is 1.98. In the case of RFLRMLLRPADEFGVAVVITNQVV [L9P], the protein stability index came out at 3.32. The result for RFLRMLLRMADEFGVAVVITNQVV [L9M] reads 1.54; that for RFLRMLLRGADEFGVAVVITNQVV [L9G], 3.55.

For RILRMLLRLADEFGVAVVITNQVV [F2I], the protein stability index stood at 2.4.

On to RTLRMLLRLADEFGVAVVITNQVV [F2T], for which the protein stability index was found to be 3.18. Turning to RPLRMLLRLADEFGVAVVITNQVV [F2P], the protein stability index came out at 2.89.

In the case of RSLRMLLRLADEFGVAVVITNQVV [F2S], the protein stability index came to 1.91. RALRMLLRLADEFGVAVVITNQVV [F2A]: the protein stability index came to 1.89. The result for RLLRMLLRLADEFGVAVVITNQVV [F2L] reads 1.6; that for RELRMLLRLADEFGVAVVITNQVV [F2E], 1.51; that for RDLRMLLRLADEFGVAVVITNQVV [F2D], 2.27. On to RGLRMLLRLADEFGVAVVITNQVV [F2G], for which the protein stability index worked out at 1.75. Take RRLRMLLRLADEFGVAVVITNQVV [F2R]: the protein stability index came out at 1.7. Take RWLRMLLRLADEFGVAVVITNQVV [F2W]: the protein stability index amounted to 1.88. With RYLRMLLRLADEFGVAVVITNQVV [F2Y], the protein stability index was 2.21. As to RVLRMLLRLADEFGVAVVITNQVV [F2V], the protein stability index was 1.59. Next, RCLRMLLRLADEFGVAVVITNQVV [F2C]: 1.75. Consider RNLRMLLRLADEFGVAVVITNQVV [F2N], for which the protein stability index is 2.1. For the variant RKLRMLLRLADEFGVAVVITNQVV [F2K], the protein stability index turned out to be 1.39. As for RQLRMLLRLADEFGVAVVITNQVV [F2Q], the protein stability index came to 2.22. For the variant RHLRMLLRLADEFGVAVVITNQVV [F2H], the protein stability index turned out to be 1.78.

Consider RMLRMLLRLADEFGVAVVITNQVV [F2M], for which the protein stability index was 2.29.
